Internalization of endogenous CXCR1 on freshly purified human neutrophils (flow cytometry of surface receptor; 0.1-100 nM, 1 h, 37 °C); lowest concentration with a significant effect, Gαi-dependent reduction of forskolin-raised cAMP (AlphaScreen cAMP assay) in HEK-293T cells transfected with CXCR1 (pcDNA6 construct without RLuc); 0.1-100 nM; potency against CXCL8(1-77) (fold (against CXCL8(1-77))) and potency to induce recruitment of β-arrestin 2-EYFP to CXCR1-RLuc (BRET dose-response, HEK-293T), against CXCL8(1-77) (fold (against CXCL8(1-77))) data for 3 substances are collected here from article PMC6321254.

For test [1], the target named is HA-CXCR1-RLuc (human) (UniProt P25024).
Test [2] shares this target. This is another data set of the same source.
Test [3] shares this target. This is another data set of the same source.

Chain of HA-CXCR1-RLuc (human) (P25024 2-350): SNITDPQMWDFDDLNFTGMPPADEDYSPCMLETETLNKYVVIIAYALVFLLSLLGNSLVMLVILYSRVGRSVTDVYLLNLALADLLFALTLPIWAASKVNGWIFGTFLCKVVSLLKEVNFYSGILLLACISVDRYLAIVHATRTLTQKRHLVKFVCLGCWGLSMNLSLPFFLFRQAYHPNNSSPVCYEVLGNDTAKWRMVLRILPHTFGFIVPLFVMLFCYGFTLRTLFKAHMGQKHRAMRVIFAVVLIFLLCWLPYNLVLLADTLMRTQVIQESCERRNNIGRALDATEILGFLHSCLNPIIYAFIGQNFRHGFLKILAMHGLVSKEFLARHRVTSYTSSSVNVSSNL

As to CXCL8(1-77) (ligand), the internalization of endogenous CXCR1 on freshly purified human neutrophils (flow cytometry of surface receptor; 0.1-100 nM, 1 h, 37 °C); lowest concentration with a significant effect in test [1] was over 10 nM.

Substance CXCL8(6-77) (ligand) came in with a Gαi-dependent reduction of forskolin-raised cAMP (AlphaScreen cAMP assay) in HEK-293T cells transfected with CXCR1 (pcDNA6 construct without RLuc); 0.1-100 nM; potency against CXCL8(1-77) (fold (against CXCL8(1-77))) in test [2] of over 10. The substance further returned a potency to induce recruitment of β-arrestin 2-EYFP to CXCR1-RLuc (BRET dose-response, HEK-293T), against CXCL8(1-77) (fold (against CXCL8(1-77))) in test [3] of 10.

On to [Cit5]CXCL8(1-77) (ligand), for which the Gαi-dependent reduction of forskolin-raised cAMP (AlphaScreen cAMP assay) in HEK-293T cells transfected with CXCR1 (pcDNA6 construct without RLuc); 0.1-100 nM; potency against CXCL8(1-77) (fold (against CXCL8(1-77))) in test [2] was over 10.
